Assay results as given in US20150148520A1.
pIC50: −log10 of the molar value. “And” between values parts separate entries of the source, which are not always exact repeats. Equal values may be shown once.

Columns and labels:
[1] = biological target: insulin receptor, B subtype (UniProt P06213); assay: cell-based or functional assay
[2] = biological target: human IGF-1 receptor (human) (UniProt P08069); assay: cell-based or functional assay
[3] = biological target: insulin receptor, A subtype (UniProt P06213); assay: cell-based or functional assay
[4] = biological target: human insulin receptor (human) (UniProt P06213); assay: cell-based or functional assay
[5] = biological target: human insulin receptor (human) (UniProt P06213); assay: SPA competition, [125I]-insulin, IR membranes

Row | Substance | % (in vitro activity, IR-B) [1] | % (in vitro activity, IR-A) [3] | % Insulin Activity [1] | % Insulin Activity [2] | % Insulin Activity [3] | further results
1 | DP3(SC): B^1(H5,10Y16L17K29)29-A^1(H8,N18,21) (from UniProt P05019 49-110) (ligand) | – | 0.03% | – | – | – | –
2 | DP3(TC): B^1(H5,10Y16L17K29)29: A^1(H8,N18,21) (ligand) | 33.1% | 160% | – | – | – | –
3 | IGF-1 A (H8 A9 N21): B (H5D10Y16L17 A22) DPI A-COOH (ligand) | – | – | – | – | – | % Insulin [4]: 360% and 614%
4 | IGF-1 A: B (H5D10Y16L17) (S═O) DPI (ligand) | – | – | – | – | – | % insulin (in test) [5]: 316%; pIC50 [5]: 9.60
5 | IGF-1 A: B (H5D10Y16L17) DPI (ligand) | – | – | – | – | – | % insulin (in test) [5]: 479%; pIC50 [5]: 9.80
6 | MIU-35: B^1(H5,H10,Y16,L17)25-C^1-A^1(H8,N18,N21) (from UniProt P05019 49-110) (ligand) | 17.4% | 61.4% | 17.4% | 3.2% | 61.4% | % (in vitro activity, IGF-1 R) [2]: 3.2%
7 | MIU-43 DP8Mut3: B^1(H5,10Y16L17R29)30-C^1des9-12-A^1(H8,N18,21) (from UniProt P05019 49-110) (ligand) | 16.7% | 97.5% | – | – | – | % (in vitro activity, column IGF-1R) [2]: 14.2%
8 | MIU-56: C8-PEG20K B^1(H5,Y16,L17)25-PEG8-K-PEG4-A^1(N18,N21) (from UniProt P05019 49-110) (ligand) | – | – | – | – | 14.8% | –
9 | MIU-68: B^1(H5,Y16,L17,K22)25-C^1(K8)-A^1(N18,21), two 10K PEG chains at the N-terminus and B22 (from UniProt P05019 49-110) (ligand) | – | – | 0.1% | < 0.1% | 0.4% | –
10 | MIU-69: B^1(H5,Y16,L17)25-C^1(K8)-A^1(K14,N18,21), two 10K PEG chains at the N-terminus and A14 (from UniProt P05019 49-110) (ligand) | – | – | 0.5% | < 0.1% | 1% | –
11 | Thr,A8: B^1(H5,10Y16L17)25-C^1-A^1(T8N18,21) (from UniProt P05019 49-110) (ligand) | 8.4% | 20.4% | – | – | – | % (in vitro activity, IGF-1 R) [2]: 3.7%

Now from value to substance, other results behind:

Row | % (in vitro activity, IR-B) [1] | % (in vitro activity, IR-A) [3] | % Insulin Activity [1] | % Insulin Activity [2] | % Insulin Activity [3] | Substance | further results
12 | 5.7% | – | – | – | – | Ala,B5: B^1(A5H10Y16L17)25-C^1-A^1(H8N18N21) (from UniProt P05019 49-110) (ligand) | % (in vitro activity, IGF-1 R) [2]: 2.5%
13 | 12.6% | 132% | – | – | – | DP8Mut3KA14: B^1(H5,10Y16L17R29)30-C^1des9-12-A^1(H8,K14,N18,21) (from UniProt P05019 49-110) (ligand) | –
14 | 1.1% | 4.5% | 1.1% | 1.2% | 3.1% | MIU-57: B^1(H5,Y16,L17)25-C^1-A^1(N18,21) with a 20 kDa PEG on the N-terminus of the B chain (from UniProt P05019 49-110) (ligand) | % (in vitro activity, IGF-1 R) [2]: 1.2%
15 | – | – | 5.8% | 2.6% | 19.7% | MIU-58: dimer of two B^1(H5,Y16,L17)25-C^1-A^1(N18,21) linked head to head via a 20 kDa PEG chain (from UniProt P05019 49-110) (ligand) | –
16 | – | – | 0.1% | < 0.1% | 0.2% | MIU-67: B^1(H5,Y16,L17)25-C^1(K8)-A^1(N18,21), two 10K PEG chains at the N-terminus and C8 (from UniProt P05019 49-110) (ligand) | –
17 | 3.2% | 8.2% | – | – | – | MIU-78 mono-20K-TC: B1-20K B^1(H5,10Y16L17K29)29: A^1(H8N18,21) (ligand) | –
18 | 0.2% | 1.7% | – | – | – | MIU-79 di-10K-SC: B1, A14-10K B^1(H5,10Y16L17R29)30-C^1des9-12-A^1(H8,K14,N18,21) (from UniProt P05019 49-110) (ligand) | –
19 | 2.1% | 6.4% | – | – | – | di-10K-TC: B1, A14-10K B^1(H5,10Y16L17R29)29: A^1(H8K14N18,21) (ligand) | –
